# According to article PMC3991606, “Targeting NAD^+ Metabolism in the Human Malaria Parasite Plasmodium falciparum” (PLoS ONE, 2014):
# B1: PfNMNAT (Plasmodium falciparum 3D7) (protein)
# chain: MHKNICIYGGSFDPITYAHEMVLDKISNLNWIHEIWVVICRCRNDKSLTEFHHRHNMFTIIINNSSKIIKSKIFLKDLESHSEMTPTYDLLKTQKELHPNYTFYFGLGSDLICDIFSWDEGEKLVLENAFIIIERGHFKIDESILKKFPKYYLINIPKLSFINFISSSEARKFLTKENDINDIKKYIHPLTIDYIIKYNLYDFN
# How the values were obtained:
# [1] = target: T1, PfNMNAT (Plasmodium falciparum, UniProt Q8IE38); experiment: pyrophosphate release assay, […] nm, […] min preincubation with inhibitor; type: biochemical; conditions: 50 µM 1a-a versus 2% DMSO control
# T1 construct: gene PF3D7_1327600
# T1 sequence (Q8IE38 1-204): B1 chain
# [2] = substrate: Nc1ncnc2c1ncn2[C@@H]1O[C@H](COP(=O)(O)OP(=O)(O)OP(=O)(O)O)[C@@H](O)[C@H]1O; experiment: purified protein; type: biochemical, Plasmodium falciparum; conditions: 500 µM NaMN, 100 mM HEPES, 10 mM MgCl2, pH 7.5, apparent Km
# [3] = substrate: O=C([O-])c1ccc[n+]([C@@H]2O[C@H](COP(=O)(O)O)[C@@H](O)[C@H]2O)c1; experiment: purified protein; type: biochemical, Plasmodium falciparum; conditions: 500 µM ATP, 100 mM HEPES, 10 mM MgCl2, pH 7.5, apparent Km
Molecule,inhibition at 50 μM [1],Km [2] [µM],Km [3] [µM]
O=C(CCC(=O)Nc1ccc(Br)cc1)N/N=C/c1c2ccccc2cc2ccccc12 [1a-a],1a-a exhibits specific activity against purified his-PfNMNAT (Figure 4A),–,–
B1,–,19.9 ± 6.7,35.8 ± 5.1
